The values below come from the supplement of paper PMC9170038.

The subject of this data set is MS2 coat protein. The experiment in a line: apparent KD of MS2 coat protein; designed switch direction (-1 OFF switch, 1 ON switch): 1; higher = weaker reporter binding. In a few lines:
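Designed RNA switches were transcribed on Illumina chips by stalled E. coli RNA polymerase and titrated with SNAP-549-labelled MS2 coat protein from 0.7 or 1.5 nM, doubling to 3 µM. Step length ran from 0.8–1.5 h at the lowest concentration to 10–20 min at the highest. The apparent KD is the median over clusters for each design, from curve-fitted normalised cluster fluorescence.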

The mark [1] stands for this setting: Eterna round: R95, input ligand: FMN 200 uM.
Where [2] appears, read: Eterna round: R95, input ligand: microRNA oligo, concentration not stated.
Where [3] appears, read: Eterna round: R95, input ligand: none.
Setting [4] is: input ligand: microRNA oligo, concentration not stated.

For “GGUCCAGCCUGAGCUGGACCGAAGCAUGUACAUGAGGAUCACCCAUGUCAUGUACAAGCUUUUUGCUCGUCUUAUUG [JL-shm-2.09 JL Mod] (puzzle: Sensor for hsa-mir-208a)”, the “apparent KD of MS2 coat protein” value turned out to be 307 nM under setting [1], 14.9 nM under setting [2] and 285 nM under setting [3].
In the case of “UUACUCAUGUAAGGAUAUGCAGCCGUUUCGGCUGCAGAAGGUACUAUAAUACAUGAGGAUCACCCAUGUCUCUAUUAUUUGGUG [salish99_SSNG1_r04_923] (Eterna round: R96, puzzle: Same State NG 1)”, the “apparent KD of MS2 coat protein” value by setting is: (input ligand: FMN 200 uM) 111 nM; under setting [4], 51.1 nM; (input ligand: none) 84.4 nM.
Take “UUAAAACAUGAGGAUCACCCAUGUAAUAAUAUGGGAGGAUAUCAGAAUGUAUGUAUGUAAUGAGAAGGCCUAAAUG [Mat - Same State 1 - Mod of Eli - D77] (puzzle: Same State 1)”: the “apparent KD of MS2 coat protein” value amounted to 70.4 nM under setting [1], 156 nM under setting [2] and 398 nM under setting [3].
Regarding “GUACAUAUCAGAGGAUAUCACGUCGUUUAGACGUGAGAAGGCUGAUCACACAUGAAUAUUAAUACAUGAGGAUCACCCAUGUAC [SSNG1/13-A3] (Eterna round: R96, puzzle: Same State NG 1)”, the “apparent KD of MS2 coat protein” value by setting is: (input ligand: FMN 200 uM) 23.8 nM; under setting [4], 31.2 nM; (input ligand: none) 32.7 nM.
For the sequence “AGGGAGGAGGCUGAGGAUAUCGUAAGGAGGACAUGAGGAUCACCCAUGUGUAUAGGAUUGGAGGACGAGAAGGCAGAGGAGUGGG [JR_SS2_Sub050] (puzzle: Same State 2)”, the “apparent KD of MS2 coat protein” value was found to be 41.1 nM under setting [1], 26.6 nM under setting [2] and 28.9 nM under setting [3].
As to “AGAAAACAUGAGGAUCACCCAUGUAUAGUGAAUACAGGAUAUCACCAACGGAAUAGUCGGUGAGAAGGGUGAUCGC [Zaxelate] (puzzle: Same State 1)”, the “apparent KD of MS2 coat protein” value by setting is: under setting [1], 18.5 nM; under setting [2], 11.3 nM; under setting [3], 14.2 nM.
Regarding “CGUCCGGCCUGUGCUGGCCGGUGGCGUGUACAUGAGGAUCACCCAUGUUCUUGUGCUGGCUGUUUGCUCGUCUUGUG [salish99_mir208a_r3_025] (puzzle: Sensor for hsa-mir-208a)”, the “apparent KD of MS2 coat protein” value runs as follows: under setting [1], 44.8 nM; under setting [2], 23 nM; under setting [3], 58.2 nM.
“UGGCUCAGAGCAGGAUAUAUGUAAUAACAUGAGGAUCACCCAUGUGUCGAGCUUCGGCUCGACACAUAGAAGGGCUCUGAGCCU [SSNG2/2-B3] (Eterna round: R96, puzzle: Same State NG 2)”: the “apparent KD of MS2 coat protein” value by setting is: (input ligand: FMN 200 uM) 12 nM; under setting [4], 28.8 nM; (input ligand: none) 40.3 nM.
The matching figures for “AUUAUUUAUGCAGGAUAUGAUUAACAUGAGGAUCACCCAUGUGGUGUUGUGAGUAAGGAGAGUGAUCAGAAGGGCAUUUUUAUU [JMF's solution 52] (Eterna round: R96, puzzle: Same State NG 2)”: 627 nM, 493 nM and 568 nM.
Regarding “UCUUGGUUUUUGCUCGUUUUUUGUGUUGAACAUGAGGAUCACCCAUGUAUUGUACGGUCCGGUUUAGUGAUGAUCCA [JMF 76] (puzzle: Sensor for hsa-mir-208a)”, the “apparent KD of MS2 coat protein” value under setting [1] was 188 nM, the “apparent KD of MS2 coat protein” value under setting [2] is 196 nM and the “apparent KD of MS2 coat protein” value under setting [3] stood at 287 nM.
With “AUAGUUGCCGAAGGAUAUGAUGAGGAUCACCCAUCAGAAGGUUGGCUAUUGGGUGGACAUGAGGAUCACCCAUGUCCUUUGGUA (Eterna round: R96, puzzle: Same State NG 1)”, the “apparent KD of MS2 coat protein” value by setting is: (input ligand: FMN 200 uM) 95.1 nM; under setting [4], 119 nM; (input ligand: none) 147 nM.
Regarding “AGGGUCGUGCUAGGAUAUCUAGGAUAUGGACGAGGAUUACCCGAGCAGCAUUAGCGCACCAGAGGAGAGAAGGAGCGUGAUGCG [pwkr ssNG2 2F5 2FMN.10] (Eterna round: R96, puzzle: Same State NG 2)”, the “apparent KD of MS2 coat protein” value came out at 329 nM (input ligand: FMN 200 uM), 2.76 nM under setting [4] and 63.7 nM (input ligand: none).
On to “CAGCACUAUCGAGAGGAUAUGCGGUGAUGGACAUGAGGAUCACCCAUGUUAGCGGUAGCAUCACGGCAGAAGGCUCUGCUGCUGC [Soteed Omei mod 39] (Eterna round: R96, puzzle: Same State 2)”, for which the “apparent KD of MS2 coat protein” value (input ligand: FMN 200 uM) turned out to be 19 nM, the “apparent KD of MS2 coat protein” value under setting [4] came to 21.5 nM and the “apparent KD of MS2 coat protein” value (input ligand: none) was 28.5 nM.
